Data reported in patent US20120121587A1 (Chugai, published 2012).
Where a chain is given by its changes, count along the chain named.

B1: H30/L0 (antibody, human IgG1, kappa)
heavy: not shown
light: DVVMTQSPLSLPVTLGQPASISCRSSQNIVHTNGNTYLEWYQQKPGKAPELLIYKVSNRFSGVPDRFSGSGSGTDFTLKISRVEAEDVGVYYCFQGSHIPFTFGQGTKLEIKRTVAAPSVFIFPPSDEQLKSGTASVVCLLNNFYPREAKVQWKVDNALQSGNSQESVTEQDSKDSTYSLSSTLTLSKADYEKHKVYACEVTHQGLSSPVTKSFNRGEC
B2: H32/L10 (antibody, human IgG1, kappa)
heavy: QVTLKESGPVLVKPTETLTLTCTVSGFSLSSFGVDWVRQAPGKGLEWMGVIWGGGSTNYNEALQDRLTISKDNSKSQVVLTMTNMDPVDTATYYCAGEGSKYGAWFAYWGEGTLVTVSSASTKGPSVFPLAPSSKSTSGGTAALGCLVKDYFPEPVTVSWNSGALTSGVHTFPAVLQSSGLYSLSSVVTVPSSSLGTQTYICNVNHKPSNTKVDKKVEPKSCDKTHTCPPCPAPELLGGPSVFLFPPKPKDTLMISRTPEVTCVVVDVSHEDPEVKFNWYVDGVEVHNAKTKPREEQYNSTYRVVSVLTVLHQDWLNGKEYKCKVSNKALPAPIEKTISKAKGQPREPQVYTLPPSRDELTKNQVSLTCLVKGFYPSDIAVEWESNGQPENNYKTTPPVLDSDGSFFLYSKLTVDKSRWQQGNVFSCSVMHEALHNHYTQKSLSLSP
light: B1 light with L109V, K112E
B3: H33/L12 (antibody, human IgG1, kappa)
heavy: not shown
light: B1 light with R24Q, K47E, L109V, K112E
B4: H36/L1 (antibody, human IgG1, kappa)
heavy: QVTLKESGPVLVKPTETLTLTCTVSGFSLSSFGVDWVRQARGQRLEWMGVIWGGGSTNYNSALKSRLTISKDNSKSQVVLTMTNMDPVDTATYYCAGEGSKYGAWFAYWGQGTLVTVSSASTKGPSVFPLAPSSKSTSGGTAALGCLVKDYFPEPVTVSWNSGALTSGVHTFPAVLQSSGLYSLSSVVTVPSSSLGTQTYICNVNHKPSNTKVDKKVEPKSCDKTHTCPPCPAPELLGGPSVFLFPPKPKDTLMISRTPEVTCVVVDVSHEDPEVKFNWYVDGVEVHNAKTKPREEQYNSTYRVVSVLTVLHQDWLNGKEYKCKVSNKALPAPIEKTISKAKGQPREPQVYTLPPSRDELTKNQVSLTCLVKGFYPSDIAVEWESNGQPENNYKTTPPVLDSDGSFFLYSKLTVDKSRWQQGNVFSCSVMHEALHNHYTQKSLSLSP
light: B1 light with R24Q
B5: H36/L10 (antibody, human IgG1, kappa)
heavy: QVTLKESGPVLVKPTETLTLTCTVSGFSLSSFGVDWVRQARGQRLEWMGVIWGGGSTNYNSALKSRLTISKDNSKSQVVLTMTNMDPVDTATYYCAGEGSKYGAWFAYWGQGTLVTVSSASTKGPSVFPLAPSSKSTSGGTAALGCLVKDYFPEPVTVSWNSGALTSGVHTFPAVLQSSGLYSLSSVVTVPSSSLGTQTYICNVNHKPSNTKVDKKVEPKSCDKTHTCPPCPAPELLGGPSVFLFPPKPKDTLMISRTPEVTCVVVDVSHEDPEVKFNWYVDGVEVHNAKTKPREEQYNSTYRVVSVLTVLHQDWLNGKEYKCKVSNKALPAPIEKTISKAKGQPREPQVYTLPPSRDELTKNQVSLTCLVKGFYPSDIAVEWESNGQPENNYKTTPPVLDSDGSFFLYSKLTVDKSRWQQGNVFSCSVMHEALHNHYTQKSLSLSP
light: B1 light with L109V, K112E
B6: H33/L0 (antibody, human IgG1, kappa)
heavy: not shown
light: B1 light
B7: H33/L11 (antibody, human IgG1, kappa)
heavy: not shown
light: B1 light with R24Q, L109V, K112E
B8: H32/L11 (antibody, human IgG1, kappa)
heavy: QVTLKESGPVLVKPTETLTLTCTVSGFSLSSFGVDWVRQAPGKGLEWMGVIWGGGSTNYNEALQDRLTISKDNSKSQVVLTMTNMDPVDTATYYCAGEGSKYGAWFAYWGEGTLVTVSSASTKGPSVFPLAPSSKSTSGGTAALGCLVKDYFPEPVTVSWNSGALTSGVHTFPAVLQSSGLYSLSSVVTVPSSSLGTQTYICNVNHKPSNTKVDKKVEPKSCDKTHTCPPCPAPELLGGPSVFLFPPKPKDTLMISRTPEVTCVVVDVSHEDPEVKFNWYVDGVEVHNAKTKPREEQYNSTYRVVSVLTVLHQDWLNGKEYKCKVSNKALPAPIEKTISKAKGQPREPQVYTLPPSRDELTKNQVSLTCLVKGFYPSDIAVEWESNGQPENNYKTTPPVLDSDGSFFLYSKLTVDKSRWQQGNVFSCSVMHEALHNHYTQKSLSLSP
light: B1 light with R24Q, L109V, K112E
B9: H31/L0 (antibody, human IgG1, kappa)
heavy: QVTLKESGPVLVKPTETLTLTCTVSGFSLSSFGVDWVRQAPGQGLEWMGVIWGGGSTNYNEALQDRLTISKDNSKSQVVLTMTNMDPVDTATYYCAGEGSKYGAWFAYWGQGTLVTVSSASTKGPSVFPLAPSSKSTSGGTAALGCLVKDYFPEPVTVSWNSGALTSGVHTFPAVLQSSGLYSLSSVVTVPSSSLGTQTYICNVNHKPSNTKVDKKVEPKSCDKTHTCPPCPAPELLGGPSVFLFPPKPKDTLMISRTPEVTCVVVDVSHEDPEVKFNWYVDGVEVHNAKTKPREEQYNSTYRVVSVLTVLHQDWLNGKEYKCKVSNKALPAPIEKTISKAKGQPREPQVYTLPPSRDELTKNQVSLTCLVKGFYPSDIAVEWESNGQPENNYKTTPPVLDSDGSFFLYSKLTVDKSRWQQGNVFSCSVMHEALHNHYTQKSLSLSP
light: B1 light
B10: H35/L0 (antibody, human IgG1, kappa, V domains shown)
VH: QVTLKESGPVLVKPTETLTLTCTVSGFSLSRFGVDWVRQAPGKGLEWMGVIWGGGSTNYNSALKSRLTISKDNSKSQVVLTMTNMDPVDTATYYCAGEGSKYGAWFAYWGQGTLVTVSS
VL: DVVMTQSPLSLPVTLGQPASISCRSSQNIVHTNGNTYLEWYQQKPGKAPELLIYKVSNRFSGVPDRFSGSGSGTDFTLKISRVEAEDVGVYYCFQGSHIPFTFGQGTKLEIKR
B11: H33/L13 (antibody, human IgG1, kappa, V domains shown)
VH: B10 VH with R31S, K43Q, S61E, K64Q, S65D, Q111E
VL: B10 VL with R24Q, K47Q, L109V, K112E
B12: H32/L13 (antibody, human IgG1, kappa)
heavy: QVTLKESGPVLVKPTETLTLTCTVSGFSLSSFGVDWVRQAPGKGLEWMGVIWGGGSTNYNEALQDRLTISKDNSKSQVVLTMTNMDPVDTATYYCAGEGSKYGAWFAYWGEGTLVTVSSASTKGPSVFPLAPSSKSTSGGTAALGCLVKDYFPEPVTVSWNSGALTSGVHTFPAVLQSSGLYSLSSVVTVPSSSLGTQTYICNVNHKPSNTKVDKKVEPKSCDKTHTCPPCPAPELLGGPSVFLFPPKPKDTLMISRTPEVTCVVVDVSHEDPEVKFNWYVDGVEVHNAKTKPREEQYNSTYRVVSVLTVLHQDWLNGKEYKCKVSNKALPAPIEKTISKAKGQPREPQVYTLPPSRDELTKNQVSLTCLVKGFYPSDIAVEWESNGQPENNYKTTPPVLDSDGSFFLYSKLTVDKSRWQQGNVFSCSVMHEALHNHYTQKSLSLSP
light: B1 light with R24Q, K47Q, L109V, K112E
B13: H32/L12 (antibody, human IgG1, kappa)
heavy: not shown
light: B1 light with R24Q, K47E, L109V, K112E
B14: H31/L10 (antibody, human IgG1, kappa)
heavy: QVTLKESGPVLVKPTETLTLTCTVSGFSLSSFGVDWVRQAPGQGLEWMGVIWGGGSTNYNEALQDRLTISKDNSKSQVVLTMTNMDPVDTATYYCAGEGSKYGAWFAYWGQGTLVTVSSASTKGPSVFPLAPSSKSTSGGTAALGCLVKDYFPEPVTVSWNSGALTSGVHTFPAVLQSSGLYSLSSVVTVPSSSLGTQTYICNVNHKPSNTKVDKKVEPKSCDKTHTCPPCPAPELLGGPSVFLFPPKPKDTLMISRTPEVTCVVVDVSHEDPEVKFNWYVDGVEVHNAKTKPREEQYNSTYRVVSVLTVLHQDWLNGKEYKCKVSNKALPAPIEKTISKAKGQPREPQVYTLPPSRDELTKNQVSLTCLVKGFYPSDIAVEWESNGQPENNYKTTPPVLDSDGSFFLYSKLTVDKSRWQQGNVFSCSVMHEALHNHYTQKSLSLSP
light: B1 light with L109V, K112E
B15: H34/L0 (antibody, human IgG1, kappa, V domains shown)
VH: B10 VH with R31K
VL: B10 VL
B16: H31/L12 (antibody, human IgG1, kappa)
heavy: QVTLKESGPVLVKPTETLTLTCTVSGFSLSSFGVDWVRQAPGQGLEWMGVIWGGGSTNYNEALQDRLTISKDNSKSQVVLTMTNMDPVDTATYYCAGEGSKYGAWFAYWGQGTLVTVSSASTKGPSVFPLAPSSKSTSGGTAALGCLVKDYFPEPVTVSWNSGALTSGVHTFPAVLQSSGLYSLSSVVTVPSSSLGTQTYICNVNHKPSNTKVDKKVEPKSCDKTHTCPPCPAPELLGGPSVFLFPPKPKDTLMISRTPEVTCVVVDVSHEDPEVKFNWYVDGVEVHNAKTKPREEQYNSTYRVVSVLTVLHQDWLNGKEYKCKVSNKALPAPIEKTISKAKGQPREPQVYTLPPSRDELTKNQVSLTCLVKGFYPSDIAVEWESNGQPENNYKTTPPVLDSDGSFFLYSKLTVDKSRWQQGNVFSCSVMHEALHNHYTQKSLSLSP
light: B1 light with R24Q, K47E, L109V, K112E
B17: H32/L0 (antibody, human IgG1, kappa)
heavy: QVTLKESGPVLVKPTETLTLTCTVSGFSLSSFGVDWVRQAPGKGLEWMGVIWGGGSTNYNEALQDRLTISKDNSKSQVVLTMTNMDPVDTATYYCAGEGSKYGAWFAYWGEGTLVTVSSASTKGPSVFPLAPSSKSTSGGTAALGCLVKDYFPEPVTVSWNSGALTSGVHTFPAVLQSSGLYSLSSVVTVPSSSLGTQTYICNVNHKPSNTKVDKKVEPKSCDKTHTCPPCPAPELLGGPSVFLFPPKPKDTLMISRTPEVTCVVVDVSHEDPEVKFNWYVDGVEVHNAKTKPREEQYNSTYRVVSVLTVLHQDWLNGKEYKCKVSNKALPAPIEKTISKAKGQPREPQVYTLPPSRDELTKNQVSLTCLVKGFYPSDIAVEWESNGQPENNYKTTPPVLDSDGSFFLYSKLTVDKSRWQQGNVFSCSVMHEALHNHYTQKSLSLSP
light: B1 light
B18: H31/L11 (antibody, human IgG1, kappa)
heavy: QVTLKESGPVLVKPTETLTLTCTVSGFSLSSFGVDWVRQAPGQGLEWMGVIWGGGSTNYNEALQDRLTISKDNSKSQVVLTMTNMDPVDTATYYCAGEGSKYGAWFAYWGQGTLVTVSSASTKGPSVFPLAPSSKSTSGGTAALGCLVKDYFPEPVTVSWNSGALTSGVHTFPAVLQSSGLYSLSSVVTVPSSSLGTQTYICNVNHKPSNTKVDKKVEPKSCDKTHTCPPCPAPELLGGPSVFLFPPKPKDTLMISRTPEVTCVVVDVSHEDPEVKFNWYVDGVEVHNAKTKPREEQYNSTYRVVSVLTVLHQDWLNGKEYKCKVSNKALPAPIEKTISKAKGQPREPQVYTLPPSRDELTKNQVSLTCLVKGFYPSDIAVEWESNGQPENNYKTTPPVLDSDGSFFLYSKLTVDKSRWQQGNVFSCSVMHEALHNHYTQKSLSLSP
light: B1 light with R24Q, L109V, K112E
B19: H36/L0 (antibody, human IgG1, kappa)
heavy: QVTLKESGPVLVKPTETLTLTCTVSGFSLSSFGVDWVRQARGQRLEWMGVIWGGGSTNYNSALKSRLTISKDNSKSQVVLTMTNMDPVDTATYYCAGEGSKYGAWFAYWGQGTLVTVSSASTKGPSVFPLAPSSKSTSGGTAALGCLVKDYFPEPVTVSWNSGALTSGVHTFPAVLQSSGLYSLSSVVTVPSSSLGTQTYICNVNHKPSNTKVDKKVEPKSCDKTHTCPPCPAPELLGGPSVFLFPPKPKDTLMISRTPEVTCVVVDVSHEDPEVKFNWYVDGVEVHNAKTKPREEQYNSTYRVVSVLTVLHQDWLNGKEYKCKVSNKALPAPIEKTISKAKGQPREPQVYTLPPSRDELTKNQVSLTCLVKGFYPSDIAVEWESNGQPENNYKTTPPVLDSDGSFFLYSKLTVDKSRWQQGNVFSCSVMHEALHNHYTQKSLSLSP
light: B1 light

biological target: T1, Human recombinant AXL-FND1 (GST-FND1), from pET-41b(+) (human, UniProt P30530 225-331); experiment: SPR (Biacore T100): antibody captured on Protein A, GST-FND1 as analyte
T1 construct: Expressed in E. coli, purified on Glutathione Sepharose; analyte in all Biacore measurements; GST put first by the usual layout of pET-41; not shown: GST-tag of vector pET-41b(+) (Novagen)
T1 sequence (looked up): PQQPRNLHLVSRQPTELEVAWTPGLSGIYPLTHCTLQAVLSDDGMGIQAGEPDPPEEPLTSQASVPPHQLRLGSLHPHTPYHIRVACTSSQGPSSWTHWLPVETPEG
Protocol: Kinetic analyses of antigen-antibody reactions of humanized AXL antibodies were carried out using Biacore T100 (BIACORE). rec-Protein A (Zymed) (hereinafter, Protein A) was immobilized onto a sensor chip, various antibodies were bound to it, then an antigen as the analyte was flushed to measure the antibody-antigen interaction. Human recombinant AXL-FND1 (prepared in 2-2; hereinafter referred to as GST-FND1) prepared at various concentrations was used as the antigen. From the sensorgrams obtained through the measurements, kinetic parameters, namely binding rate constant kₐ (1/Ms) and dissociation rate constant kd (1/s), were calculated, and Kd (M) was calculated based on these values. Biacore T100 Evaluation Software (BIACORE) was used to calculate each of the parameters.
The sensor chips were produced by immobilizing approximately 3000 RU of Protein A onto CM5 (BIACORE) by amine coupling. Using the produced sensor chip, kinetic analyses were carried out on the interaction between the Protein A-bound antibodies and GST-FND1. HBS-EP+ was used as the running buffer, and the flow rate was set to 30 μL/min. Each antibody was prepared at 1 μg/mL using the running buffer, and was subjected to binding with Protein A for two minutes. GST-FND1 as the analyte was prepared at 0.5 and 2.0 μg/mL using HBS-EP+. Measurements were carried out by first binding the various humanized AXL antibodies, chimeric AXL antibodies, or mouse AXL antibodies of interest to Protein A, then applying an analyte solution to them for a two-minute interaction, and then switching to HBS-EP+ (BIACORE) for a two-minute measurement of the dissociation phase. After completion of measurement of the dissociation phase, 30 μL of 10 mM glycine-HCl (pH 2.0) was used for washing to regenerate the sensor chip. Such binding, dissociation, and regeneration were defined as one cycle of analysis. All experiments were performed at 25° C.
Affinity evaluation of each of the variants by Biacore was carried out by the method of Example 2.

Row | Binder | Kd [nM]
1 | B1 | 2.7
2 | B2 | 2.8
3 | B3 | 3.06
4 | B4 | 2.03
5 | B5 | 1.87
6 | B6 | 3.04
7 | B7 | 3.06
8 | B8 | 2.74
9 | B9 | 2.54
10 | B10 | 3.65
11 | B11 | 3.02
12 | B12 | 2.74
13 | B13 | 2.64
14 | B14 | 3.03
15 | B15 | 5.94
16 | B16 | 3.14
17 | B17 | 2.82
18 | B18 | 3.05
19 | B19 | 1.96
